One assay concerns the target T1, Rab34 (Homo sapiens, UniProt Q9BZG1, Q111L).
T1 construct: full-length Rab34 from E. coli, preparatively loaded with GppNHp
T1 sequence (Q9BZG1 1-237 Q111L): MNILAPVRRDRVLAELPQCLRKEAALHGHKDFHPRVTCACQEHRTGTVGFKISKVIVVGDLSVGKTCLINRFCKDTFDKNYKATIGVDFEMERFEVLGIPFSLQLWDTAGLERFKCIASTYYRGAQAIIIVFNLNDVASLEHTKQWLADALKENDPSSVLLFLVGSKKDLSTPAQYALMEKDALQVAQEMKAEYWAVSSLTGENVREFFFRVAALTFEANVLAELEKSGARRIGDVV
The experiment in a line: nucleotide loading, C18 reversed-phase HPLC of bound nucleotide. The format is binding.

Assay [1] addresses T2, Rep15, full length (natural N101D variant) (human, UniProt Q6BDI9 1-236, N101D).
T2 sequence: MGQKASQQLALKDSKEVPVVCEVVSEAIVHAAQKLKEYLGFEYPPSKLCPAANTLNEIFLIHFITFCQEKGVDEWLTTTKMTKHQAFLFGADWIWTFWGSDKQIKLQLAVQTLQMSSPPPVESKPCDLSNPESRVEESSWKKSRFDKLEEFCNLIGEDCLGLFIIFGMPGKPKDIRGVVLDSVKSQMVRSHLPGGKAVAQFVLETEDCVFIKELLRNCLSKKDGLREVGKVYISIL
Kind of assay: ITC.

Assay [2] deals with T3, Rep15, full length (natural N101D variant) (human, UniProt Q6BDI9 1-236, N101D).
T3 construct: also called full-length Rep15; Rab15 effector protein
T3 sequence (looked up): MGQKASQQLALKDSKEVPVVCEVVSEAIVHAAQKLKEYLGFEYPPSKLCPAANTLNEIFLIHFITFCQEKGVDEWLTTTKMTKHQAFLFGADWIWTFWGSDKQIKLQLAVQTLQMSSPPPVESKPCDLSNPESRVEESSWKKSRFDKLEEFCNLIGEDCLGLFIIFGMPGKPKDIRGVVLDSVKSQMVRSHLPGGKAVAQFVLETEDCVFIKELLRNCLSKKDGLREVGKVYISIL
The experiment in a line: SEC; analytical SEC; 110 µM Rep15 and 121 µM Rab mixed; Superdex 75 10/300 GL; 20 mM Hepes 8.0, 50 mM NaCl, 1 mM MgCl2, 2 mM DTE; room temperature. As to conditions: both partners purified.

Assay [3] concerns the target T2, Rep15, full length (natural N101D …). The experiment in a line: ITC. This is another data set of the same source.
Assay [4] concerns the target T3, Rep15, full length (natural N101D …). Kind of assay: ITC; 500/600 µM GppNHp/GTP Rab titrated into 50/60 µM Rep15; 20 mM Hepes 8.0, 50 mM NaCl, 1 mM MgCl2, 1 mM TCEP; one-site-binding model. As to conditions: both partners purified.
The target is the same in assay [5]. The experiment in a line: fluorescence polarisation; stopped flow, association; mant-GppNHp Rab15 mixed with increasing Rep15 (2.5–25 µM); 25 °C; 20 mM Hepes 8.0, 50 mM NaCl, 2 mM MgCl2, 2 mM DTE; kobs against Rep15 concentration, koff from the intercept, KD as koff/kon. As to conditions: both partners purified.

Some results are limits rather than exact numbers.

With `Nc1nc2c(ncn2[C@@H]2O[C@H](COP(=O)(O)OP(=O)(O)NP(=O)(O)O)[C@@H](O)[C@H]2O)c(=O)[nH]1` [GppNHp, Guanosine-5′-[β-γ-Imido]-triphosphate], the “nucleotide loading, C18 reversed-phase HPLC of bound nucleotide” value at Rab34 (preparative nucleotide exchange, mixture with GppNH2) is “apart from GppNHp, Rab34 is also bound to GppNH2 (hydrolysis product of GppNHp)”.
For the molecule `Nc1nc2c(ncn2[C@@H]2O[C@H](COP(=O)(O)OP(N)(=O)O)[C@@H](O)[C@H]2O)c(=O)[nH]1` [GppNH2], the “nucleotide loading, C18 reversed-phase HPLC of bound nucleotide” value at Rab34 (formed during loading with GppNHp, mixture with GppNHp) is on record as “apart from GppNHp, Rab34 is also bound to GppNH2 (hydrolysis product of GppNHp)”.

B1: Rab3D, purified, GppNHp-loaded (natural protein, human, UniProt O95716 1-219, looked up)
chain: MASAGDTQAGPRDAADQNFDYMFKLLLIGNSSVGKTSFLFRYADDSFTPAFVSTVGIDFKVKTVYRHDKRIKLQIWDTAGQERYRTITTAYYRGAMGFLLMYDIANQESFAAVQDWATQIKTYSWDNAQVILVGNKCDLEDERVVPAEDGRRLADDLGFEFFEASAKENINVKQVFERLVDVICEKMNESLEPSSSSGSNGKGPAVGDAPAPQPSSCSC
notes: Rab3D, human; source: E. coli BL21 Codon-Plus (DE3)-RIL, purified (Ni Sepharose, TEV cleavage, gel filtration)
With B1, binding in assay [1] was put at a Kd of 790 nM. Moreover, in assay [2], the binding result was “binds”.

B2: Rab3A V61N, purified (natural protein, human, UniProt P20336 1-220, looked up)
chain: MASATDSRYGQKESSDQNFDYMFKILIIGNSSVGKTSFLFRYADDSFTPAFVSTVGIDFKNKTIYRNDKRIKLQIWDTAGQERYRTITTAYYRGAMGFILMYDITNEESFNAVQDWSTQIKTYSWDNAQVLLVGNKCDMEDERVVSSERGRQLADHLGFEFFEASAKDNINVKQTFERLVDVICEKMSESLDTADPAVTGAKQGPQLSDQQVPPHQDCAC
notes: Rab3A, human, with V61N; Tag as told for the 6His-tagged Rab3 paralogs in general; source: E. coli BL21 Codon-Plus (DE3)-RIL, purified
In the case of B2, in assay [3], the Kd was found to be 390 nM. Further, the binding result in assay [4] is “binds”.

B3: Rab15, purified, nucleotide-loaded (natural protein, human, UniProt P59190 1-212, looked up)
chain: MAKQYDVLFRLLLIGDSGVGKTCLLCRFTDNEFHSSHISTIGVDFKMKTIEVDGIKVRIQIWDTAGQERYQTITKQYYRRAQGIFLVYDISSERSYQHIMKWVSDVDEYAPEGVQKILIGNKADEEQKRQVGREQGQQLAKEYGMDFYETSACTNLNIKESFTRLTELVLQAHRKELEGLRMRASNELALAELEEEEGKPEGPANSSKTCWC
notes: Rab15, human; Loaded with GppNHp (aSEC, ITC) or mant-GppNHp / mant-dGppNHp (stopped flow); also called Rab15_(GppNHp); Rab15_(mant-GppNHp); source: E. coli BL21 Codon-Plus (DE3)-RIL, purified (Ni Sepharose, TEV cleavage, gel filtration)
In the case of B3, in assay [4], binding was put at a Kd of 470 ± 120 nM and the “stoichiometry N” value was found to be 1. In assay [5], this molecule yielded a Kd of 580 nM, a koff of 4.73 s⁻¹ and a kon of 8.16e+06 M⁻¹ s⁻¹.

B4: Rab27A F81Y, purified (natural protein, human, UniProt P51159 1-221, looked up)
chain: MSDGDYDYLIKFLALGDSGVGKTSVLYQYTDGKFNSKFITTVGIDFREKRVVYRASGPDGATGRGQRIHLQLWDTAGQERYRSLTTAFFRDAMGFLLLFDLTNEQSFLNVRNWISQLQMHAYCENPDIVLCGNKSDLEDQRVVKEEEAIALAEKYGIPYFETSAANGTNISQAIEMLLDLIMKRMERCVDKSWIPEGVVRSNGHASTDQLSEEKEKGACGC
notes: Rab27A, human, with F81Y; also called F81Y Rab27A; source: E. coli, purified
B4 had an equilibrium dissociation constant (Kd) in assay [3] of 10800 nM. Besides, the “fold increase in affinity against wild-type Rab27A” value in assay [4] is greater than 8 fold.

B5: Rab27A, purified (natural protein)
chain: MSDGDYDYLIKFLALGDSGVGKTSVLYQYTDGKFNSKFITTVGIDFREKRVVYRASGPDGATGRGQRIHLQLWDTAGQERFRSLTTAFFRDAMGFLLLFDLTNEQSFLNVRNWISQLQMHAYCENPDIVLCGNKSDLEDQRVVKEEEAIALAEKYGIPYFETSAANGTNISQAIEMLLDLIMKRMERCVDKSWIPEGVVRSNGHASTDQLSEEKEKGACGC
B5: the Kd in assay [3] came to 86200 nM.

B6: Rab3B, purified, GppNHp-loaded (natural protein, human)
chain: MASVTDGKTGVKDASDQNFDYMFKLLIIGNSSVGKTSFLFRYADDTFTPAFVSTVGIDFKVKTVYRHEKRVKLQIWDTAGQERYRTITTAYYRGAMGFILMYDITNEESFNAVQDWATQIKTYSWDNAQVILVGNKCDMEEERVVPTEKGQLLAEQLGFDFFEASAKENISVRQAFERLVDAICDKMSDSLDTDPSMLGSSKNTRLSDTPPLLQQNCSC
notes: Rab3B, human; also called Rab3B_(GppNHp); source: E. coli BL21 Codon-Plus (DE3)-RIL, purified (Ni Sepharose, TEV cleavage, gel filtration)
For the molecule B6, in assay [1], binding was characterised by a dissociation constant (Kd) of 2160 nM. For the same molecule, in assay [2], the binding result is on record as “binds”.

The values are drawn from publication PMC9308819 (Nature Communications, 2022).
